Measurements from patent US20220324970A1 (Janssen / Centocor, published 2022).
Read-outs that look alike come from different tables or passages of the source. Each block holds one binder with its values, some of them ahead of it.

Tests used:
[1] = biological target: T1, human pIgR, full-length, on cells (human, UniProt P01833 19-764); assay: cell-based or functional assay
[2] = biological target: T1, human pIgR, full-length, on cells; assay: cell-based or functional assay; remark: listed apart in the source
[3] = biological target: T1, human pIgR, full-length, on cells; assay: flow cytometry on MDCK-hpIgR cells
Method: (§1) Flow Cytometry was performed as follows. To test whether VHH-mono-Fc molecules recognize cell-surface hpIgR, Madin-Darby canine kidney (MDCK) cells engineered to express full-length hpIgR were used. Cells were cultured in Dulbecco's modified Eagle's medium containing 10% fetal calf serum at 37° C. with 5% CO₂. Cells were split into equal fractions (≈70,000 cells) and incubated with increasing concentrations of VHH-mono-Fc molecules for 30 min at 4 C. […] Cells were washed twice with cold staining buffer, resuspended in running buffer and analyzed with an iQue Screener (IntelliCyt Corporation). Binding was assessed by RL1 (A647) Geomeans from the live cell population and EC50 was calculated by fitting log VHH concentration versus MFI in Prism (Graphpad).

[4] = biological target: T2, human pIgR extracellular domain (ECD) (human, UniProt P01833 19-638); assay: BLI; summary table, repeats Table 1
T2 construct: also called hpIgR ECD
T2 sequence (P01833 other isoform, or with tags, fused parts or gaps): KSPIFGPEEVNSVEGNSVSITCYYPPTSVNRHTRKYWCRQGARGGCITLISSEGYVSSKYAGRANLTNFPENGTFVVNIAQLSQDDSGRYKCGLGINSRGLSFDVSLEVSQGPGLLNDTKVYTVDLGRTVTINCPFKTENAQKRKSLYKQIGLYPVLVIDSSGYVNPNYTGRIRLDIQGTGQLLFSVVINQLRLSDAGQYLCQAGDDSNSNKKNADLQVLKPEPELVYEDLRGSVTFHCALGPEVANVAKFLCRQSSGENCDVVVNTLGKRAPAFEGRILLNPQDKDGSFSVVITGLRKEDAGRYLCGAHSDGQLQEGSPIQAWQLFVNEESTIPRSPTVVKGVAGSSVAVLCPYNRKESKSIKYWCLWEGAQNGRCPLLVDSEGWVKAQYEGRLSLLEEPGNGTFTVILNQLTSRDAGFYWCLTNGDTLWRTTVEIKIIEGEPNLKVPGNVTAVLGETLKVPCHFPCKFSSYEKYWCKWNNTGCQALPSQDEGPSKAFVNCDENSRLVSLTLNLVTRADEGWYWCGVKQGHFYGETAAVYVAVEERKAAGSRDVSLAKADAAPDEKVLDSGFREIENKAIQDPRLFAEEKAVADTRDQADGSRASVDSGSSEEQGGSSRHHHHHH

[5] = biological target: T2, human pIgR extracellular domain (ECD); assay: BLI; summary table, repeats Table 1; remark: listed apart in the source
[6] = biological target: T2, human pIgR extracellular domain (ECD); assay: BLI (Octet), VHH-mono-Fc and hpIgR ectodomain
[7] = biological target: T2, human pIgR extracellular domain (ECD); assay: ECL (MSD), hpIgR-ECD coated, anti-Fc detection
Method: (§2) To check whether VHH recognizes a buried epitope on pIgR, EC₅₀ values were measured for VHH-mono-Fc molecules binding to hpIgR-ECD protein by electrochemiluminescence using two different detection antibodies, an anti-Fc antibody and an anti-VHH antibody. pIgR ECD (10 μg/ml in PBS) was coated on high-bind MSD plates for 2 hours at RT with 1000 rpm, incubated with blocking buffer for 1 hour at RT, incubated with VHH-mono-Fc molecules (increasing concentrations in PBS) for 2 hours at RT with 1000 rpm, washed 3× with PBT, incubated with ruthenylated secondary antibody (2 μg/ml in PBS) for 1 hour at RT with 1000 rpm, washed 3× with PBT and read plates in 40 ul reading buffer using the MSD imager. EC50 was calculated by fitting log VHH concentration versus log ECLU in Prism (Graphpad). The increase in EC₅₀ (>50-fold) due to anti-VHH detection was used as a measure to determine whether VHH recognized buried epitope on pIgR.

[8] = biological target: T2, human pIgR extracellular domain (ECD); assay: ECL (MSD), hpIgR-ECD coated, anti-VHH detection
Method: as §2

[9] = biological target: T2, human pIgR extracellular domain (ECD); assay: ECL (MSD), anti-VHH detection against anti-Fc detection
Method: as §2

[10] = biological target: T1, human pIgR, full-length, on cells; assay: flow cytometry on MDCK-hpIgR cells; summary table, repeats Table 1
Method: as §1

[11] = biological target: T1, human pIgR, full-length, on cells; assay: as above; remark: listed apart in the source
hpIgR_D3 = biological target: T3, hpIgR_D3; assay: ECL (MSD) heat map, HIS-tagged construct captured via anti-HIS, anti-human-Fc detection;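 further: VHH-mono-Fc molecules tested at 100 µg/ml for 2 h on captured His-tagged pIgR constructs (10 µg/ml), read-out as electrochemiluminescence units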
T3 construct: HIS-tagged construct from HEK293 cells; also called human pIgR extracellular domain 3 (D3); hD3
T3 HIS-tagged domain construct: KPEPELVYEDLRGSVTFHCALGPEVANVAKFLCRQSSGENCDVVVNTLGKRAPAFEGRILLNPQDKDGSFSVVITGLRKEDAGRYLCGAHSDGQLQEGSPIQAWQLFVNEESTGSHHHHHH

[12] = biological target: T4, human pIgR extracellular domain 1 (D1) (human, UniProt P01833 19-127); assay: as above
T4 construct: HIS-tagged construct made in HEK293 cells; also called hpIgR domain-1
T4 sequence (P01833 other isoform, or with tags, fused parts or gaps limits assumed): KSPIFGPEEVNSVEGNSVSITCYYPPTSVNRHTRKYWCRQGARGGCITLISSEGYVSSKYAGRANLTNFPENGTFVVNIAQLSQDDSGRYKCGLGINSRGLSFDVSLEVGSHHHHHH

[13] = biological target: T5, human pIgR extracellular domain 2 (D2) (human, UniProt P01833 128-242); assay: as above
T5 construct: HIS-tagged construct made in HEK293 cells; also called hpIgR domain 2

[14] = biological target: T6, human pIgR extracellular domain 5 (D5) (human, UniProt P01833 460-565); assay: as above
T6 construct: HIS-tagged construct made in HEK293 cells; also called hpIgR domain 5

hpIgR_D2-D3 = biological target: T7, hpIgR_D2-D3; assay: as above
T7 construct: HIS-tagged construct from HEK293 cells; also called human pIgR extracellular domain 2-domain 3 (D2-D3); hD2-D3
T7 HIS-tagged domain construct: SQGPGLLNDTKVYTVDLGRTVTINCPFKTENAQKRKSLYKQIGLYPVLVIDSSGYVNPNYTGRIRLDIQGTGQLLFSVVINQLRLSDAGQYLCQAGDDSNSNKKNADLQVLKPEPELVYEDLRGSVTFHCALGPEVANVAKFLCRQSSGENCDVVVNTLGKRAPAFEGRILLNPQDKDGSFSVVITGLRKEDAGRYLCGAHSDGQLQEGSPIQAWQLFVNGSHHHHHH

[15] = biological target: T8, human pIgR extracellular domain 4-domain 5 (D4-D5) (human, UniProt P01833 350-565); assay: ECL (MSD) heat map in ECLU: HIS-tagged construct captured via anti-HIS, VHH-mono-Fc 100 ug/ml, anti-human-Fc detection
T8 construct: HIS-tagged construct made in HEK293 cells; also called hpIgR domains 4-5
T8 chain: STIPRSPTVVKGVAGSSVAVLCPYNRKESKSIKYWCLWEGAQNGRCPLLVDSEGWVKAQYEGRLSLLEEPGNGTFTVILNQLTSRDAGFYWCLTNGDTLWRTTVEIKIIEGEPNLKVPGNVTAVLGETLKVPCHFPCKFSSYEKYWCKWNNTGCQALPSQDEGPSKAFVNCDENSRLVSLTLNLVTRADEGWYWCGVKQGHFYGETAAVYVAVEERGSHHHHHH
Method: The Electrochemiluminescence assay was performed as follows. A meso-scale discovery (MSD) platform was used for conducting epitope mapping and epitope burial studies. To test the binding of VHH-mono-Fc molecules to purified pIgR protein constructs, Streptavidin MSD plates were coated with a biotinylated anti-HIS antibody (2 μg/ml in PBS) for 1 hour at RT with 1000 rpm, washed 3× with PBT (PBS+0.1% Tween-20), incubated with blocking buffer for 1 hour at RT, incubated with His-tagged pIgR proteins (10 μg/ml in PBS) for 2 hours at RT with 1000 rpm, washed 3× with PBT, incubated with VHH-mono-Fc molecules (100 μg/ml in PBS) for 2 hours at RT with 1000 rpm, washed 3× with PBT, incubated with ruthenylated-anti-human-Fc antibody (2 μg/ml in PBS) for 1 hour at RT with 1000 rpm, washed 3× with PBT and read plates in 40 ul reading buffer using the MSD imager. ECLU values were plotted as a heatmap.

[16] = biological target: T2, human pIgR extracellular domain (ECD); assay: BLI (Octet RED384), 1:1 fit, 25 C, PBS
[17] = biological target: T2, human pIgR extracellular domain (ECD); assay: BLI (Octet RED384), 1:1 fit, 25 C, PBS; column kdis
[18] = biological target: T8, human pIgR extracellular domain …; assay: BLI (Octet RED384), 1:1 fit, 25 C, PBS; antigen printed 'hD4 D5'
Method: (§3) Bio-layer Interferometry was performed as follows. […] Data were collected with Octet Data Acquisition version 7.1.0.87 (ForteBio) and analyzed using Octet Data Analysis version 7.1 (ForteBio). To measure binding kinetics between VHH-mono-Fc molecules and HIS-tagged pIgR proteins, VHH-mono-Fc was immobilized on amine-reactive generation-2 (ARG2) biosensors according to manufacturer's instructions and increasing concentrations of pIgR proteins were exposed to sensor-immobilized VHH. In some cases, HIS-tagged pIgR proteins were immobilized on anti-HIS biosensors and exposed to increasing concentrations of VHH-mono-Fc molecules. Association and dissociation rates were measured by the shift in wavelength (nm). […] All reactions were performed at 25° C. in PBS.

[19] = biological target: T9, human pIgR extracellular domain 1-domain 2 (D1-D2) (human, UniProt P01833 19-240); assay: ECL (MSD) heat map, HIS-tagged construct captured via anti-HIS, anti-human-Fc detection
T9 construct: HIS-tagged construct made in HEK293 cells
T9 sequence (P01833 other isoform, or with tags, fused parts or gaps limits assumed): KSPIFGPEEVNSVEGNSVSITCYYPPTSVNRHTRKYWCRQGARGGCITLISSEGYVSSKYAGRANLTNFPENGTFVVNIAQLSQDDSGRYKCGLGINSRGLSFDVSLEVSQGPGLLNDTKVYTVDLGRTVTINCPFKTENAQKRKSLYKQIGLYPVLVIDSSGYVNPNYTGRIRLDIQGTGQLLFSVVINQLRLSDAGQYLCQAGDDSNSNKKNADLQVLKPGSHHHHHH

[20] = biological target: T8, human pIgR extracellular domain …; assay: BLI (Octet RED384), 1:1 fit, 25 C, PBS; column kdis; antigen printed 'hD4 D5'
Method: as §3

[21] = biological target: T1, human pIgR, full-length, on cells; assay: cell-based or functional assay; remark: listed apart in the source
[22] = biological target: T8, human pIgR extracellular domain …; assay: BLI (Octet RED384), 1:1 fit, 25 C, PBS
[23] = biological target: T8, human pIgR extracellular domain …; assay: BLI (Octet RED384), 1:1 fit, 25 C, PBS; column kdis
[24] = biological target: T6, human pIgR extracellular domain 5 (D5); assay: ECL (MSD) heat map, HIS-tagged construct captured via anti-HIS, anti-human-Fc detection; remark: listed apart in the source

T1 sequence (P01833 19-764): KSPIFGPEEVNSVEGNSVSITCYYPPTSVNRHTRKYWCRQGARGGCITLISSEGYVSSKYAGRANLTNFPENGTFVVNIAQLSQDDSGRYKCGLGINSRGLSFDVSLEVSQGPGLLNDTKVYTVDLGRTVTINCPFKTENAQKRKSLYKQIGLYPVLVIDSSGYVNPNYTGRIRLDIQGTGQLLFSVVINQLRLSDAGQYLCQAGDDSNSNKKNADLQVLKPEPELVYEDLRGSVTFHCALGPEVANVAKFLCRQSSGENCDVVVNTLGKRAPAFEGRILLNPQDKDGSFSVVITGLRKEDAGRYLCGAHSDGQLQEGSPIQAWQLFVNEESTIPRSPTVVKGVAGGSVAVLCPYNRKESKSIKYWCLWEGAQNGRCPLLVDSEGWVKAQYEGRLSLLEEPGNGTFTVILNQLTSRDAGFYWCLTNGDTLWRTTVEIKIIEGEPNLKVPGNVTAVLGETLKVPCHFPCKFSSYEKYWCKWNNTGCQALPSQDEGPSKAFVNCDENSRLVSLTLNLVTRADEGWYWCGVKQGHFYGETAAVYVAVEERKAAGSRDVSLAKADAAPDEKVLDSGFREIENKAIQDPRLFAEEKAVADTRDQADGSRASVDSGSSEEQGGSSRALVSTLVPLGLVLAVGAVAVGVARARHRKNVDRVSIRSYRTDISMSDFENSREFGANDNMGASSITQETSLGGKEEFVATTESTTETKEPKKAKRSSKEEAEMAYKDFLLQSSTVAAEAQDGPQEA

Transcytosis (Fold Incr.) [1]: 1.3 fold | For. Trans. (Fold Incr.) [2]: 1.9 fold | Rev. Trans (Fold Incr.) [2]: 3.3 fold | EC50 [3]: 36.4 nM | Kd [4]: 521 nM | Kd [5]: 521 nM | Kd [6]: 521 nM | EC50 [7]: 12.4 nM | EC50 [8]: 31.1 nM | Fold change in EC50 [9]: 2.5 fold | EC50 [10]: 36.4 nM | EC50 [11]: 36.4 nM | binding result [15]: binds
B1: VHH7-linker-mono-Fc protein (Fc fusion)
chain: EVQVVESGGGLVQAGGSLRLACVASRSIGSINVMGWYRQAPGKQRDLVARITGGGSTHYAESVKGRFTISRDNAKNTVYLQMNSLEPEDTAVYYCASMVNPIITAWGTIGVREIPDYDYWGQGTQVTVSSEPKTPKPQPQPQLQPQPNPTTESKSPKSPAPELLGGPSVFLFPPKPKDTLMISRTPEVTCVVVDVSHEDPEVKFNWYVDGVEVHNAKTKPREEQYNSTYRVVSVLTVLHQDWLNGKEYKCKVSNKALPAPIEKTISKAKGQPREPQVYTKPPSREEMTKNQVSLSCLVKGFYPSDIAVEWESNGQPENNYKTTVPVLDSDGSFRLASYLTVDKSRWQQGNVFSCSVMHEALHNHYTQKSLSLSPGK
notes: made in CHO cells; also called VHH7-mono-Fc; hpIgR_198
binding result (hpIgR_D3): no binding (tested: 100 ug/ml (single concentration)) | binding result [12]: no binding (tested: 100 ug/ml (single concentration)) | binding result [13]: no binding (tested: 100 ug/ml (single concentration)) | binding result [14]: no binding (tested: 100 ug/ml (single concentration)) | binding result (hpIgR_D2-D3): no binding (tested: 100 ug/ml (single concentration))

Transcytosis (Fold Incr.) [1]: 6.9 fold | For. Trans. (Fold Incr.) [2]: 8.9 fold | Rev. Trans (Fold Incr.) [2]: 2.1 fold | EC50 [3]: 4.3 nM | Kd [4]: 11 nM | Kd [5]: 11 nM | Kd [6]: 11 nM | EC50 [7]: 0.3 nM | EC50 [8]: 178 nM | Fold change in EC50 [9]: 592 fold | Kd [16]: 10 nM | kon [16]: 145000 M⁻¹ s⁻¹ | EC50 [10]: 4.3 nM | EC50 [11]: 4.3 nM | koff [17]: 0.00145 s⁻¹ | Kd [18]: 11.6 nM | kon [18]: 111000 M⁻¹ s⁻¹ | koff [20]: 0.00128 s⁻¹
B2: VHH5-linker-mono-Fc protein (Fc fusion)
chain: QVQLVESGGGLVQAGGSLRLSCAASGRTFSSYAMGWFRQAPGKEREFVAAITWNGGTTYYADSVKGRFTISRDNAKNTVYLQMNSLKPEDTAVYYCAADPFNQGYWGQGTQVTVSSEPKTPKPQPQPQLQPQPNPTTESKSPKSPAPELLGGPSVFLFPPKPKDTLMISRTPEVTCVVVDVSHEDPEVKFNWYVDGVEVHNAKTKPREEQYNSTYRVVSVLTVLHQDWLNGKEYKCKVSNKALPAPIEKTISKAKGQPREPQVYTKPPSREEMTKNQVSLSCLVKGFYPSDIAVEWESNGQPENNYKTTVPVLDSDGSFRLASYLTVDKSRWQQGNVFSCSVMHEALHNHYTQKSLSLSPGK
notes: made in CHO cells; also called VHH5-mono-Fc; hpIgR_175
binding result (hpIgR_D3): no binding (tested: 100 ug/ml (single concentration)) | binding result [12]: no binding (tested: 100 ug/ml (single concentration)) | binding result [13]: no binding (tested: 100 ug/ml (single concentration)) | binding result [14]: no binding (tested: 100 ug/ml (single concentration)) | binding result (hpIgR_D2-D3): no binding (tested: 100 ug/ml (single concentration)) | binding result [19]: no binding (tested: 100 ug/ml (single concentration))

increase in their apical concentration relative to control VHH (MDCK-hpIgR monolayers) [21]: > 10 fold | Transcytosis (Fold Incr.) [1]: 32 fold | For. Trans. (Fold Incr.) [2]: 24.2 fold | Rev. Trans (Fold Incr.) [2]: 10.3 fold | EC50 [3]: 1.5 nM | Kd [4]: 19 nM | Kd [5]: 19 nM | Kd [6]: 19 nM | EC50 [7]: 0.3 nM | EC50 [8]: 0.8 nM | Fold change in EC50 [9]: 3.2 fold | Kd [16]: 27.9 nM | kon [16]: 113000 M⁻¹ s⁻¹ | Kd [22]: 15.2 nM | kon [22]: 184000 M⁻¹ s⁻¹ | EC50 [10]: 1.5 nM | EC50 [11]: 1.5 nM | koff [17]: 0.00314 s⁻¹ | koff [23]: 0.00281 s⁻¹
B3: VHH11-linker-mono-Fc protein (Fc fusion)
chain: EVQVVESGGGLVQAGGSLRLSCAASGRTFTTYRMGWFRQAPGKEREFVAAIRWSGGRTLYADSVKGRFTISRDNAKNTAYLQMNNLRPEDTAVYYCAADLAEYSGTYSSPADSPAGYDYWGQGTQVTVSSEPKTPKPQPQPQLQPQPNPTTESKSPKSPAPELLGGPSVFLFPPKPKDTLMISRTPEVTCVVVDVSHEDPEVKFNWYVDGVEVHNAKTKPREEQYNSTYRVVSVLTVLHQDWLNGKEYKCKVSNKALPAPIEKTISKAKGQPREPQVYTKPPSREEMTKNQVSLSCLVKGFYPSDIAVEWESNGQPENNYKTTVPVLDSDGSFRLASYLTVDKSRWQQGNVFSCSVMHEALHNHYTQKSLSLSPGK
notes: made in CHO cells; also called VHH11-mono-Fc; hpIgR_250
binding result (hpIgR_D3): no binding (tested: 100 ug/ml (single concentration)) | binding result [12]: no binding (tested: 100 ug/ml (single concentration)) | binding result [13]: no binding (tested: 100 ug/ml (single concentration)) | binding result (hpIgR_D2-D3): no binding (tested: 100 ug/ml (single concentration)) | binding result [19]: no binding (tested: 100 ug/ml (single concentration)) | binding result [24]: no binding (tested: 100 ug/ml (single concentration))
